# “And” between values parts separate entries of the source, which are not always exact repeats. Identical values can stand only once.
# B1: R12.06 (5'-amino-C6) (ssDNA)
# DNA: TGTACCGTCTGAGCGATTCGTACGATTACTATAATTTCCTATCGTCCGACCGCCGTCAGCCAGTCAGTGTTAAGGAGTGC
# modifications: 5' amino-C6
# B2: R12.06 (FAM) (ssDNA)
# DNA: B1 DNA
# How the values were obtained:
# [1] = target: T1, alpha toxin (alpha-hemolysin) (Staphylococcus aureus, UniProt P09616 27-319); assay: SPR; […] (pH not stated); SPR temperature not stated; […]; conditions: protein: commercial; stem-loop (Mfold)
# T1 sequence (P09616 27-319): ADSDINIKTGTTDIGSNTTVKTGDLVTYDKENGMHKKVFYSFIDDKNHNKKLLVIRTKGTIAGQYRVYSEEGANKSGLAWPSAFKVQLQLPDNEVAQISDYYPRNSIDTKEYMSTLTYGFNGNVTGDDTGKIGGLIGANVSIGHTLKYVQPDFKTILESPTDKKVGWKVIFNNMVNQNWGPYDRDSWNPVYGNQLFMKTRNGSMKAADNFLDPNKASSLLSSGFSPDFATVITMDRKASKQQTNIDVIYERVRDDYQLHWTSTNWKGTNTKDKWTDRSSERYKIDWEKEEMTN
# [2] = target: T1, alpha toxin (alpha-hemolysin); assay: SPR; assay 2; […] (pH not stated); SPR temperature not stated; […]; conditions: protein: commercial; stem-loop (Mfold)
# [3] = target: T1, alpha toxin (alpha-hemolysin); assay: SPR; assay 1; […] (pH not stated); SPR temperature not stated; […]; conditions: protein: commercial; stem-loop (Mfold)
# exotoxin A = exotoxin A (UniProt P11439 26-638); assay: fluorescence plate binding; p = 0.004; […] (pH not stated); SPR temperature not stated; […]; conditions: protein: commercial; stem-loop (Mfold)
# exotoxin A, sequence (P11439 26-638): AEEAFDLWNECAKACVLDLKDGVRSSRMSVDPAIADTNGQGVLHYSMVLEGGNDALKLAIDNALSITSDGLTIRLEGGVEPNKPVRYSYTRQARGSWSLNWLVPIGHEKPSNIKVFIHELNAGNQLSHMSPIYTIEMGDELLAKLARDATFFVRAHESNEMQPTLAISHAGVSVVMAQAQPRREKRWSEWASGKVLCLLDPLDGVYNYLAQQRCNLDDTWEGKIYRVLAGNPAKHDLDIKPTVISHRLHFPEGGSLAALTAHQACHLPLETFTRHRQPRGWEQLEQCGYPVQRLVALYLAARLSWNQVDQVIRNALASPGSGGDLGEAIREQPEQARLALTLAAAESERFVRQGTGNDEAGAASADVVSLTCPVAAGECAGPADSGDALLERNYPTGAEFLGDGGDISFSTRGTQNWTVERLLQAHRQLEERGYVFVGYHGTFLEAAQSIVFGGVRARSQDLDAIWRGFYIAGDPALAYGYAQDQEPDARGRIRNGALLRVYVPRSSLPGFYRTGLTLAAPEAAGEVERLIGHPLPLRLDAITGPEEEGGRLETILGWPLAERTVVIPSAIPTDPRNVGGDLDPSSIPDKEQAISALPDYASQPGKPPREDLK
# [4] = target: T1, alpha toxin (alpha-hemolysin); assay: […] (pH not stated); SPR temperature not stated; […]; conditions: protein: commercial; stem-loop (Mfold)
# cholera toxin = cholera toxin (UniProt P01555;P01556 19-258;22-124); assay: as above; conditions: protein: commercial; copies: 1;5; stem-loop (Mfold)
# cholera toxin, sequence (P01555 19-258, chain 1 of 2): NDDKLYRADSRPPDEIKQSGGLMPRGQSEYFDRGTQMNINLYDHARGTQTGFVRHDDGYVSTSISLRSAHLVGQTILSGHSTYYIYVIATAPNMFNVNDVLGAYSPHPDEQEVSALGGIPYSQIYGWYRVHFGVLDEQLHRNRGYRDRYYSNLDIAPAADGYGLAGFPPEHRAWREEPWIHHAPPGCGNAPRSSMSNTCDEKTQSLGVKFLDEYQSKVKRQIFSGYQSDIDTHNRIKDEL
# cholera toxin, sequence (P01556 22-124, chain 2 of 2): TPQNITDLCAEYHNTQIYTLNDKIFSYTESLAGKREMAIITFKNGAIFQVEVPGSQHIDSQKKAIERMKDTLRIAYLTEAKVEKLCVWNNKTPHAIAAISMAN
# toxin B = toxin B (UniProt P18177 2-2366); assay: as above; conditions: protein: commercial; stem-loop (Mfold)
# toxin B, sequence (P18177 2-2366): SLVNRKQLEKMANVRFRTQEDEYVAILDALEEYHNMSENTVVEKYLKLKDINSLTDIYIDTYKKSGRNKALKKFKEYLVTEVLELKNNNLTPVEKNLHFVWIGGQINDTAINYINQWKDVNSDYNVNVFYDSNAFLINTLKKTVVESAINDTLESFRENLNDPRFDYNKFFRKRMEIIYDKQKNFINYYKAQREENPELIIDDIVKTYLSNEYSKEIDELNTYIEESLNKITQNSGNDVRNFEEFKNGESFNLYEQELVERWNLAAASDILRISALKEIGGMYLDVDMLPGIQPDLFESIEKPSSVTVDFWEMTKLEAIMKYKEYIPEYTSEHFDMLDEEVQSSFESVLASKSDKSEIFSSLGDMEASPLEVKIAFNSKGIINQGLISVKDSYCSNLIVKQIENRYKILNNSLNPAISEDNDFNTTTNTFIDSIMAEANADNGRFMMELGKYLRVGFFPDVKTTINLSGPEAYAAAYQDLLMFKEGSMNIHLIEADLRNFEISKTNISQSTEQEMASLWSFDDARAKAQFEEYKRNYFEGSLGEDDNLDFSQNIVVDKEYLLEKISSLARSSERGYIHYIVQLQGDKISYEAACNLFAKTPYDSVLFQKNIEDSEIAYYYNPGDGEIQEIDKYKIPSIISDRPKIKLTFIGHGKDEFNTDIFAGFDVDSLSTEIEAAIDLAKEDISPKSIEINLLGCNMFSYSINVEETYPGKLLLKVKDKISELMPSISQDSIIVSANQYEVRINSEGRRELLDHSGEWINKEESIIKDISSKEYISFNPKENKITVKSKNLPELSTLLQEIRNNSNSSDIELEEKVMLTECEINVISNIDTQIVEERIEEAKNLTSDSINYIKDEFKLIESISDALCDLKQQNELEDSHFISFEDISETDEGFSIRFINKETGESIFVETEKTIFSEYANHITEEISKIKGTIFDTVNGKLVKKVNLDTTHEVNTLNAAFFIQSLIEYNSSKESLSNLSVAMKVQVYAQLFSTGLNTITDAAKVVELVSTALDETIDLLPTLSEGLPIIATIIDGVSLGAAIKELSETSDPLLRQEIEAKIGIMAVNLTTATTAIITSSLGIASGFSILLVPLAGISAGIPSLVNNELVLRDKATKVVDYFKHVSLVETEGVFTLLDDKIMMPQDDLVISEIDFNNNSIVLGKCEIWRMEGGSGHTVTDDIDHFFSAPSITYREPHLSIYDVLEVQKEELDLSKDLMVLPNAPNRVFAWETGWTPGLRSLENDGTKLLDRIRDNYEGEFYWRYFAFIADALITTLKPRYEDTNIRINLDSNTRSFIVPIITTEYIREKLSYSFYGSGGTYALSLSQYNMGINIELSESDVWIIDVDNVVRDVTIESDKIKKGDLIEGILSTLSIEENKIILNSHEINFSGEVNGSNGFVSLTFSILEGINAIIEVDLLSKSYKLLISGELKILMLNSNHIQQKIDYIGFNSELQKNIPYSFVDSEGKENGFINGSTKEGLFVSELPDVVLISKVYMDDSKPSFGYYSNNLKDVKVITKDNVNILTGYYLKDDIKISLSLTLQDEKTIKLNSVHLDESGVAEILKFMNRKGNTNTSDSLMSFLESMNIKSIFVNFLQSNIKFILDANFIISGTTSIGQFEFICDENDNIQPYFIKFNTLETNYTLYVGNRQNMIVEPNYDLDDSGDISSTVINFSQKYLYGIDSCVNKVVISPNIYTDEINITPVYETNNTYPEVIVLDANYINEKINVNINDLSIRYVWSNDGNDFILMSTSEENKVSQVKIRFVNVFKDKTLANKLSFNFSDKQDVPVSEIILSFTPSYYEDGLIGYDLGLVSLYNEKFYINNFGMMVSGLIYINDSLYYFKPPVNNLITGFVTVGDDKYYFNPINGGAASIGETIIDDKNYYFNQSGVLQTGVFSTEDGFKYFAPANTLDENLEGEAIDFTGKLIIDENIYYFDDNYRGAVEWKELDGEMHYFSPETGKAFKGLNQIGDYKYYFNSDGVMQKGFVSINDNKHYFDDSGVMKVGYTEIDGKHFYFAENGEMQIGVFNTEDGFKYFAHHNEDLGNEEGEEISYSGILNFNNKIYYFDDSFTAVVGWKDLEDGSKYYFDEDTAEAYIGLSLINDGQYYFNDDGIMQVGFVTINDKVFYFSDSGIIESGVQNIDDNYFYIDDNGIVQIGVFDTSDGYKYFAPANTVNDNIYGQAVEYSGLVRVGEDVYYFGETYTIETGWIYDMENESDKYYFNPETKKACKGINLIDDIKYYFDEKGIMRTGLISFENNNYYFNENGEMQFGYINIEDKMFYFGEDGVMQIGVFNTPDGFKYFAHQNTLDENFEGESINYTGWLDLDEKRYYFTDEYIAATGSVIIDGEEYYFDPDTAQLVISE
Binder,Kd [1],Kd [2] [nM],Kd [3] [nM],binding signal (exotoxin A),binding signal [4],binding signal (cholera toxin),binding signal (toxin B)
B1,93.7 nM and 90.7 nM,88.7,102,,,,
B2,,,,1.5 fold lower than alpha toxin,1 relative to alpha toxin,1.5 fold lower than alpha toxin,5 fold lower than alpha toxin
